This is an account of results in paper doi:10.1101/2024.03.21.586168 (bioRxiv, 2024).

Test [1] has as its target recombinant CD135 (Flt3) (UniProt Q00342). The experiment in a line: ELISA. In general terms: In an ELISA, binding on a coated surface is turned into a signal by an enzyme label.
Test [2] deals with T1, recombinant CD135 (Flt3) (UniProt Q00342 28-544).
T1 sequence (looked up): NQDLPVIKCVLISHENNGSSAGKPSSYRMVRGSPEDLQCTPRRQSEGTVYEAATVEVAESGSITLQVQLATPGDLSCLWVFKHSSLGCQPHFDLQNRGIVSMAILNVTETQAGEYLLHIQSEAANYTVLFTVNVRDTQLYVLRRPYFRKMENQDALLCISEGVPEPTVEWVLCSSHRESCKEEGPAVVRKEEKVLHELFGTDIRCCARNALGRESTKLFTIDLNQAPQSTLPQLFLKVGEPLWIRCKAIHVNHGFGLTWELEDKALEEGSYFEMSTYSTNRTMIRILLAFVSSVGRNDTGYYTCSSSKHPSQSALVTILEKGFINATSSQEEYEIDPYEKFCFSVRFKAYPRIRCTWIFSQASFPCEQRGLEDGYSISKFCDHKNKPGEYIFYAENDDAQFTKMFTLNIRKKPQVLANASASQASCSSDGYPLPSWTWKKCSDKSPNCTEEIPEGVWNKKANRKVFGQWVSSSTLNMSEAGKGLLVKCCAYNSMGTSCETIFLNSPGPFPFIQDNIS
Description: ELISA.

Take “Flt3L-SA (murine Flt3L fused at its C terminus to murine serum albumin through a (G4S)2 linker)”: the dissociation constant (Kd) (usually the concentration at which binding is half-saturated) in the test with recombinant CD135 (Flt3) [1] stood at 160 pM.

B1: native, soluble murine Flt3L (WT) (ligand, mouse, UniProt P49772 27-189, looked up)
chain: GTPDCYFSHSPISSNFKVKFRELTDHLLKDYPVTVAVNLQDEKHCKALWSLFLAQRWIEQLKTVAGSKMQTLLEDVNTEIHFVTSCTFQPLPECLRFVQTNISHLLKDTCTQLLALKPCIGKACQNFSRCLEVQCQPDSSTLLPPRSPIALEATELPEPRPRQ
On to B1, for which the dissociation constant (Kd) in the test with recombinant CD135 (Flt3) [2] was 160 pM.
